Data: the supplement of paper PMC9732359
± gives the uncertainty stated by the source.

Test: protein stability index of a GFP-peptide fusion (yeast GPS) (PSI 1-4); higher = more stable; sorted into four equal gates, so the index is relative within each strain
Settings: pdr5∆
Outline: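 Sequencing reads from sorted gates were used to score each peptide. The library consisted of tiled 17-residue yeast protein peptides fused downstream of GFP on a Cherry-expressing plasmid, pooled and carried in yeast. Mid-log cultures in leucine-free medium were split into four equal gates by GFP/Cherry ratio, and each gate's plasmids were PCR-amplified and Illumina-sequenced. The protein stability index adds up, over all gates, the read frequency multiplied by the gate number.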

Question: With SKLSKNISFYKLHVNWN [SIN4] as the sequence, how does the protein stability index read?
Answer: 1.79 ± 0.071

Same assay, conditions: san1∆

Question: For RQQKLLEDQQRQQKLLL [SWI1], which protein stability index is on record?
Answer: 3.03 ± 0.077

Question: Which protein stability index does the source give for RQTLAPYAVLSQFYELR [YJR042W/NUP85] here?
Answer: 2.42 ± 0.16

Question: With RRGTALGIKKEKRIQYA [RPB2] as the sequence, how does the protein stability index read?
Answer: 2.33 ± 0.15

Question: With RRMGILKKILDQCKKQR [RPO31] as the sequence, how does the protein stability index read?
Answer: 1.61 ± 0.23

Question: For RRSKMNPLWNAIIVAGV [PRE4], which protein stability index is on record?
Answer: 2.86 ± 0.097

Question: With RRTYNTLEDKFLLLAVN [ISW2] as the sequence, how does the protein stability index read?
Answer: 1.18 ± 0.19

Question: Which protein stability index does the source give for RSEFIESLLNWINRSDG [YJR042W/NUP85] here?
Answer: 2.77 ± 0.24

Question: Which protein stability index does the source give for RSMDAEQLGHASKRHKP [RPP1] here?
Answer: 2.73 ± 0.054

Question: For RSNGSVASLSKRNKLLT [YJL039C/NUP192], which protein stability index is on record?
Answer: 2.1 ± 0.12

Question: Which protein stability index does the source give for RSYDLTRHQNTIHAKRK [RPN4] here?
Answer: 2.52 ± 0.071

Question: With RTLWPEFIPPDPTKVTE [SSN8] as the sequence, how does the protein stability index read?
Answer: 2.78 ± 0.04

Question: Which protein stability index does the source give for RTQAGDIVSIDIEEPQL [MTW1] here?
Answer: 3.36 ± 0.061

Question: With RVFNAKDTTGPKAISNF [YCS4] as the sequence, how does the protein stability index read?
Answer: 3.18 ± 0.11

Question: For RVLITQRHIAVGKQIVN [RPS9A], which protein stability index is on record?
Answer: 2.83 ± 0.12

Question: Which protein stability index does the source give for RVNEMVQGMNDDIFIRY [ECM29] here?
Answer: 2.09 ± 0.19

Question: For RVSLQDIKDFADKVYTK [QCR2], which protein stability index is on record?
Answer: 2.62 ± 0.079

Question: For RYFWLDHNGVPFPQYPA [ITC1], which protein stability index is on record?
Answer: 3.08 ± 0.1

Question: With RYPMNLLEFIIDEIAYL [ECM29] as the sequence, how does the protein stability index read?
Answer: 2.75 ± 0.091

Question: With RYVYAHFPINVNIVEKD [RPL9A] as the sequence, how does the protein stability index read?
Answer: 2.06 ± 0.062

Question: For SAENRDEKDYLTNQQPK [CSE2], which protein stability index is on record?
Answer: 2.54 ± 0.048

Question: For SAESWGTGRAVARIPRV [RPL4A], which protein stability index is on record?
Answer: 2.65 ± 0.21

Question: With SAFKFIHTQLSEIKQQI [YJL039C/NUP192] as the sequence, how does the protein stability index read?
Answer: 2.82 ± 0.12

Question: With SAGNDKMVKAWNLNQFQ [ASC1] as the sequence, how does the protein stability index read?
Answer: 2.15 ± 0.065

Question: With SAKGPEIIPLQDYYIIG [MED6] as the sequence, how does the protein stability index read?
Answer: 3.14 ± 0.044

Question: For SAKTRSHNWAAKAKRRH [RPL37B], which protein stability index is on record?
Answer: 3.31 ± 0.059

Question: For SALEQAIIYQRGKDGKL [YGL100W/SEH1], which protein stability index is on record?
Answer: 3.15 ± 0.047

Question: For SAMPAPYMPYYYYYHPM [DSN1], which protein stability index is on record?
Answer: 2.74 ± 0.049

Question: Which protein stability index does the source give for SANTNNTCTISTSKFES [SWP82] here?
Answer: 2.43 ± 0.055

Question: For SARGIETRPAQVILPMS [FAS2], which protein stability index is on record?
Answer: 3 ± 0.068

Question: Which protein stability index does the source give for SASFSLKNGDKPHLLKF [RPL6B] here?
Answer: 3.25 ± 0.14

Question: With SASLHLNYGVYLNGTLI [RET1] as the sequence, how does the protein stability index read?
Answer: 3.09 ± 0.1

Question: Which protein stability index does the source give for SASTSATGISGSVSEET [ECM29] here?
Answer: 3.12 ± 0.041

Question: With SCQIAQPYEDRPFEGLF [RRP45] as the sequence, how does the protein stability index read?
Answer: 3.15 ± 0.086

Question: With SCSFFAKLSDTLIIDQV [NUT1] as the sequence, how does the protein stability index read?
Answer: 2.06 ± 0.11

Question: For SDAMSIDEEDKDSESFS [YCG1], which protein stability index is on record?
Answer: 2.61 ± 0.13

Question: Which protein stability index does the source give for SDEEENNNNKSINKNNK [SSN2] here?
Answer: 2.72 ± 0.065

Question: For SDEKKDGDASKPAFSFG [YJL041W/NSP1], which protein stability index is on record?
Answer: 3.25 ± 0.056

Question: With SDELHNQSTIYEDEELS [LIN1] as the sequence, how does the protein stability index read?
Answer: 3.11 ± 0.07

Question: With SDIESLEALMDILLCYQ [SRB8] as the sequence, how does the protein stability index read?
Answer: 3.03 ± 0.19

Question: For SDIKQGYTQHGGLRPFG [PRE9], which protein stability index is on record?
Answer: 3.58 ± 0.15

Question: With SDINQNDDSSSMNATMR [YDL088C/ASM4] as the sequence, how does the protein stability index read?
Answer: 2.76 ± 0.073

Question: For SDLKGKLSSAENANADL [YIL149C/MLP2], which protein stability index is on record?
Answer: 3.17 ± 0.12

Question: Which protein stability index does the source give for SDLNLTDRQKKLLGVDM [YLR018C/POM34] here?
Answer: 3.19 ± 0.039

Question: With SDMENDNLLLNLEQINE [REC8] as the sequence, how does the protein stability index read?
Answer: 2.72 ± 0.06

Question: Which protein stability index does the source give for SDNSVSVRLQVTKILPH [IRR1] here?
Answer: 2.74 ± 0.097

Question: With SDREMAALIASKVYYNL [RPN2] as the sequence, how does the protein stability index read?
Answer: 1.5 ± 0.055

Question: For SDSETNHKSKDNNNGDD [SKP1], which protein stability index is on record?
Answer: 3.11 ± 0.04

Question: For SDSIELLKQYPKDSSST [YJR042W/NUP85], which protein stability index is on record?
Answer: 2.61 ± 0.044

Question: Which protein stability index does the source give for SDSLDIAQGIDLVRDID [SRP72] here?
Answer: 3.09 ± 0.077

Question: Which protein stability index does the source give for SEAEQIDTSKNLENMSI [YCG1] here?
Answer: 3.17 ± 0.068

Question: With SEAFPSLQSCSVAVHFQ [SMC4] as the sequence, how does the protein stability index read?
Answer: 2.39 ± 0.095

Question: With SEEKIRDYSKEILGINL [SIR4] as the sequence, how does the protein stability index read?
Answer: 2.88 ± 0.073

Question: Which protein stability index does the source give for SEETQFKYVEDRFPLKL [ITC1] here?
Answer: 3.27 ± 0.09

Question: For SEFLNVPFESLQGVTYP [YIL149C/MLP2], which protein stability index is on record?
Answer: 2.72 ± 0.091

Question: Which protein stability index does the source give for SEGEQKSAEGNNIDQSL [YAR002W/NUP60] here?
Answer: 2.94 ± 0.066

Question: With SEGYQKTFSRLDALTRH [RPN4] as the sequence, how does the protein stability index read?
Answer: 1.06 ± 0.24

Question: Which protein stability index does the source give for SEISDGKLKRCSRCGSV [SIN4] here?
Answer: 3.36 ± 0.11

Question: With SEVRKAVSIETALEHKV [FAS2] as the sequence, how does the protein stability index read?
Answer: 1.35 ± 0.12

Question: With SFALPFEEDEKNSDVWF [RPN8] as the sequence, how does the protein stability index read?
Answer: 3.14 ± 0.051

Question: For SFCGFLLYYIPSLELSA [YJR042W/NUP85], which protein stability index is on record?
Answer: 1.57 ± 0.1

Question: For SFDAVSDSIELLKQYPK [YJR042W/NUP85], which protein stability index is on record?
Answer: 2.56 ± 0.11

Question: Which protein stability index does the source give for SFHVQKKTCSSCGYPAA [RPL37A] here?
Answer: 1.71 ± 0.16

Question: Which protein stability index does the source give for SFILSSLEDPQVRKKQI [YDL116W/NUP84] here?
Answer: 2.44 ± 0.098

Question: With SFKIFVDVLVISSHSHP [RRP42] as the sequence, how does the protein stability index read?
Answer: 1.19 ± 0.07

Question: Which protein stability index does the source give for SFLEKPKFAIQDNHHIT [YMR129W/POM152] here?
Answer: 2.81 ± 0.051

Question: Which protein stability index does the source give for SFLKEGDLLNAEVQSLF [RRP4] here?
Answer: 3.04 ± 0.059

Question: With SFLSKHALYLAPSGIRM [SSN2] as the sequence, how does the protein stability index read?
Answer: 1.46 ± 0.12

Question: For SFNIPRLTFKPWVVYLQ [YMR129W/POM152], which protein stability index is on record?
Answer: 1.09 ± 0.1

Question: With SFQKKSNDKVVEWINPS [ISW2] as the sequence, how does the protein stability index read?
Answer: 3.1 ± 0.12

Question: With SFTNYITRSFKEPRLVI [RPS0A] as the sequence, how does the protein stability index read?
Answer: 2.55 ± 0.068

Question: With SFTSATERHIQVGDGLE [PRE7] as the sequence, how does the protein stability index read?
Answer: 3.35 ± 0.091

Question: With SGCENITDKTIESIVNL [GRR1] as the sequence, how does the protein stability index read?
Answer: 1.54 ± 0.19

Question: For SGEDAEEELWNSPSKGN [YIL149C/MLP2], which protein stability index is on record?
Answer: 3.28 ± 0.058

Question: For SGIRLIEPELFNGYNPE [FAS2], which protein stability index is on record?
Answer: 2.82 ± 0.073

Question: Which protein stability index does the source give for SGKRKPTKAAQRARDQD [GAL11] here?
Answer: 3.25 ± 0.28

Question: With SGKSNFFAAIRFVLSDD [SMC3] as the sequence, how does the protein stability index read?
Answer: 3.38 ± 0.08

Question: For SGNDSMAGKVLILTSHN [BRR2], which protein stability index is on record?
Answer: 1.63 ± 0.091

Question: With SGRNIHLAVVCVDDNSK [SSN2] as the sequence, how does the protein stability index read?
Answer: 1.48 ± 0.085

Question: With SGTDGSTIGILLLTIQL [SRP72] as the sequence, how does the protein stability index read?
Answer: 3.35 ± 0.054

Question: With SGWTPFHIACSVGNLEV [NAS6] as the sequence, how does the protein stability index read?
Answer: 1.68 ± 0.1

Question: Which protein stability index does the source give for SHAVEFFMSERSSRLHI [YML103C/NUP188] here?
Answer: 2.75 ± 0.087

Question: Which protein stability index does the source give for SHEERIEAIDEYNKPNS [ISW2] here?
Answer: 1.84 ± 0.076

Question: For SIEFAKREKRVFLKHSL [RPN6], which protein stability index is on record?
Answer: 2.87 ± 0.11

Question: For SIEMEEETDDEDKQNIE [RRI2], which protein stability index is on record?
Answer: 3.39 ± 0.062

Question: With SIGASIADLASLEQLLG [YCS4] as the sequence, how does the protein stability index read?
Answer: 2.9 ± 0.076

Question: For SIHAHGSTDVGYYLSLG [PUP1], which protein stability index is on record?
Answer: 2.91 ± 0.065

Question: With SILEHSGIRLIEPELFN [FAS2] as the sequence, how does the protein stability index read?
Answer: 2.76 ± 0.058

Question: Which protein stability index does the source give for SIMAVTFKDGVILGADS [PRE3] here?
Answer: 2.94 ± 0.086

Question: For SIQPIESNIKMTLEDNN [SSN2], which protein stability index is on record?
Answer: 2.81 ± 0.053

Question: With SIVLDSEHFDVNDNPDI [DIS3] as the sequence, how does the protein stability index read?
Answer: 2.74 ± 0.093

Question: Which protein stability index does the source give for SIWQVKDQLPDLESMGL [MED7] here?
Answer: 2.93 ± 0.12

Question: With SKALNSILESSMFLRID [RGR1] as the sequence, how does the protein stability index read?
Answer: 2.08 ± 0.11

Question: Which protein stability index does the source give for SKDIETLKKEWLKEYED [YIL149C/MLP2] here?
Answer: 3.26 ± 0.053

Question: For SKGSFINIAQMSACVGQ [RPO21], which protein stability index is on record?
Answer: 1.3 ± 0.082

Question: Which protein stability index does the source give for SKICLSHFSLDQFITSL [ITC1] here?
Answer: 2.17 ± 0.081

Question: Which protein stability index does the source give for SKIFNESFPDDIPLAKA [CDC53] here?
Answer: 2.55 ± 0.049

Question: Which protein stability index does the source give for SKISQMAQNKTHIPQTN [YLR018C/POM34] here?
Answer: 2.07 ± 0.1

Question: Which protein stability index does the source give for SKKAEKTGTKPAAVFAE [RPL4B] here?
Answer: 2.44 ± 0.072

Question: Which protein stability index does the source give for SKLDIYTQQQALEYIGA [RET1] here?
Answer: 2.59 ± 0.12

Question: With SKLEGTINKAVQVKVLG [ESC2] as the sequence, how does the protein stability index read?
Answer: 1.66 ± 0.21

Question: Which protein stability index does the source give for SKLLYDDVTCDKLSVSE [SIN4] here?
Answer: 2.86 ± 0.051

Question: With SKLSEHLNHYILLRYHH [YCG1] as the sequence, how does the protein stability index read?
Answer: 1.82 ± 0.091
